Two molecules from article PMC10681732 can be followed below.

Numbering of substitutions follows the chain as printed.

One data set has as its target T1, RIG-I CTD WT (crystal) (human, UniProt O95786 802-925).
T1 sequence: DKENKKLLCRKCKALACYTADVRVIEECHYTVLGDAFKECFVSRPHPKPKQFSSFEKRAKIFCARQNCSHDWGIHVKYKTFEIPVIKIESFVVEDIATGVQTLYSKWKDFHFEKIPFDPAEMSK
The data set can be described thus: X-ray crystallography.

The target in data set [1] is T2, RIG-I CTD I875A (crystal) (human, UniProt O95786 802-925, I875A).
T2 sequence: T1 sequence with I74A
The data set can be described thus: X-ray crystallography.

B1: OH-dsRNA (crystallization) (dsRNA)
RNA 1: GACGCUAGCGUC
RNA 2: GACGCUAGCGUC
As to B1, in the data set with RIG-I CTD WT (crystal), the binding result is recorded as “binds”.

B2: p-dsRNA (crystallization) (dsRNA)
RNA 1: GACGCUAGCGUC
RNA 2: GACGCUAGCGUC
modifications: 5'-monophosphate
For B2, in data set [1], the binding result is “binds”.
